The assay addresses T1, HA-tagged constitutively active (CA) Rab6a mutant (Q72L) (UniProt P20340 2-208, Q72L).
T1 construct: Rab6a, amplified from EGFP-Rab6AQ72L (Addgene #49483); the forward primer puts ATG and the HA tag before the codons S-T-G-G (residue 2 onward), the reverse primer ends at the stop codon after ...GGCSC; The vector is called pCMV-FLAG; also called HA-tagged CA Rab6a; GTP-Rab6a; source: HEK293TT, transfected, purified (anti-HA agarose, eluted with HA peptide); not shown: HA, N-terminal, kept
Put plainly: pull-down; 5 µg biotinylated peptide incubated with purified protein (~20 nM FLAG-BICD2 or HA-tagged CA or DN Rab6a) in HN buffer (50 mM HEPES, 150 mM NaCl) with 0.1% Triton, 1 mM DTT, 2 h at 4°C; streptavidin magnetic beads; western blot for HA or FLAG. Particulars: both partners purified. (In general: A western blot detects proteins with antibodies after separation by electrophoresis.)

Ends that are not written are not given here.

B1: biotinylated HPV16 L2 peptide, amino acids 434–461 (peptide)
peptide: SPQYTIIADAGDFYLHPSYYMLRKRRKR
modifications: also: further groups not given here
notes: HPV16 minor capsid protein L2, amino acids 434-461 of full-length HPV16 L2; also called L2 C; peptide 434–461; source: synthetic peptide, bought: GenScript or Promega
For the molecule B1, the binding result is reported as “binds”.

The values above are taken from publication PMC11559006, “Rab6a enables BICD2/dynein-mediated trafficking of human papillomavirus from the trans-Golgi network during virus entry” (mBio, 2024).
